Test results as given in publication PMC8498639, “3D Domain Swapping Dimerization of the Receiver Domain of Cytokinin Receptor CRE1 From Arabidopsis thaliana and Medicago truncatula” (Frontiers in Plant Science, 2021).
Where two headings read alike, the source gives them in different places. Values belong to the molecule of their own block, whether it stands above or below them.

Columns and labels:
[1] = molecular target: MtHPt1 (histidine-containing phosphotransfer protein 1 of Medicago truncatula) with N-terminal His6-MBP fusion (Medicago truncatula); test: BLI; His6-MBP-MtHPt1 (104 nM) immobilised on Ni-NTA sensors; MtCRE1-IC at 2.5, 5, 10, 20 nM; SEC buffer (25 mM HEPES pH 7.5, 50 mM NaCl, 100 mM KCl, 1 mM TCEP) with 10% Kinetic Buffer, with 0.5 mM ATP and 2 mM MgCl2; 25°C; global 1:1 fit
[2] = molecular target: MtHPt1 (histidine-containing phosphotransfer protein 1 of Medicago truncatula) with N-terminal His6-MBP fusion (Medicago truncatula); test: as above; remark: listed apart in the source
[3] = molecular target: the molecule itself; test: crystal structure; AtCRE1-REC-K, 2.15 Å, space group P2(1)2(1)2, two subunits in the asymmetric unit; K+ bound
[4] = molecular target: the molecule itself; test: crystal structure; MtCRE1-REC-Ca, 2.5 Å, space group P3(1)21, one subunit in the asymmetric unit, dimer by a crystallographic twofold; Ca2+ bound
[5] = molecular target: the molecule itself; test: native gel or EMSA; Native-PAGE of AtCRE1-REC compared with monomeric PR-10 proteins of similar calculated pI

Chain of MtHPt1 (histidine-containing phosphotransfer protein 1 of Medicago truncatula) with N-terminal His6-MBP fusion (Medicago truncatula) (main, as listed by the source): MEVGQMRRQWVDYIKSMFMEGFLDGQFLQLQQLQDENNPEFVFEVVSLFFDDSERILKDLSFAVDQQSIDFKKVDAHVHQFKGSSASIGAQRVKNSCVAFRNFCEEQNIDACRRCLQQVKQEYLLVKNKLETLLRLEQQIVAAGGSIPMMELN

Kd [1]: 12 nM
Kd [2]: 12 to 54 nM
Molecule: MtCRE1-IC (intracellular domain of Medicago truncatula CRE1, Ile352-Ser1003) (from UniProt G7LCC3 352-1003) (domain or fragment)

B1: AtCRE1-REC, C-terminally truncated receiver domain Leu918-Phe1048 (Arabidopsis thaliana CRE1/AHK4) (domain or fragment)
chain: SNALLTGKKILVVDDNIVNRRVAAGALKKFGAEVVCAESGQVALGLLQIPHTFDACFMDIQMPQMDGFEATRQIRMMEKETKEKTNLEWHLPILAMTADVIHATYEECLKSGMDGYVSKPFEEENLYKSVAKSF
notes: cloning linker at the N-terminus (vector pMCSG68); Ser-Asn-Ala is printed for the longer construct from the same vector, Asn916-Ala917 of the linker are named for this one; AHK4/CRE1/WOL, Arabidopsis thaliana, receiver domain with a 9-residue C-terminal truncation, Leu918-Phe1048; numbers count on: UniProt Q9C5U0-2; also called AtCRE1-REC-K; source: Magic E. coli strain, purified (Ni-NTA, TEV, …)
binding result [3]: binds

B2: MtCRE1-REC (receiver domain of cytokinin receptor CRE1 from Medicago truncatula) (domain or fragment, UniProt G7LCC3 856-994, looked up)
chain: SLLFGKKILVVDDNVVNRRVAAGALKNFGADVKCADSGKAALEMLQFPHKFDACFMDIQMPEMDGFEATRRIREMERTANEETNSECGERKSEFHLPILAMTADVIHATYEECLKCGMDGYVSKPFEEENLYQAVAKFF
notes: Made by proteolysis, not cloned as a domain; residues 936-948 are missing in the map; also called MtCRE1-REC-Ca; source: recombinant MtCRE1-IC from E. coli, limited proteolysis with thermolysin, purified (Superdex 75)
binding result [4]: binds

B3: AtCRE1-REC, complete receiver domain Leu918-Ser1057 (Arabidopsis thaliana CRE1/AHK4) (domain or fragment)
chain: SNALLTGKKILVVDDNIVNRRVAAGALKKFGAEVVCAESGQVALGLLQIPHTFDACFMDIQMPQMDGFEATRQIRMMEKETKEKTNLEWHLPILAMTADVIHATYEECLKSGMDGYVSKPFEEENLYKSVAKSFKPNPISPSS
notes: Ser-Asn-Ala cloning artifact at the N-terminus (vector pMCSG68); AHK4/CRE1/WOL, Arabidopsis thaliana, receiver domain Leu918-Ser1057; numbers count on: UniProt Q9C5U0-2; also called AtCRE1-REC-Mg; source: E. coli BL21 Gold, purified (Ni-NTA, TEV, Superdex75)
stoichiometry N [5]: 2
